Reference: doi:10.1101/2025.09.11.675134, “Biodistribution-Driven Discovery Identifies a Glycosidase-Cleavable Linker to Reprogram Radiotheranostics” (bioRxiv, 2025)
Like-named read-outs stand apart in the source and are kept apart here.

Assay: Ex vivo biodistribution of 111In-labeled variants in AR42J xenograft mice
Set-up: species or system athymic nude mice
Conditions: athymic nude, mouse, iv, 1 ug, total radioactivity, 1 h post-injection; for tissue uptake at 1 h: AR42J tumor-bearing mice; for tissue to tissue ratio at 1 h: AR42J xenografts, read-out: Tumor-to-kidney (T/K) ratio
Method: For studies involving three variants (DOTA -TATE, DOTA-MVK(ε)-TATE, and DOTA-β-Gal-TATE), AR42J cells (5 × 10^6 cells per mouse) were subcutaneously inoculated into the right shoulder of the mice. Tumors were allowed to grow for 3 weeks, reaching a volume of 100 –200 mm³ before being used in subsequent experiments. For biodistribution or PET imaging studies, mice bearing subcutaneous AR42J tumors were administered 1.4 – 1.8 MBq (1 μg) of 111In-labeled DOTA-TATE variants or 2.7 – 4.9 MBq (1 μg) of 86Y-labeled DOTA-TATE variants via tail vein injection. Biodistribution studies with 111In-labeled DOTA -TATE variants were performed 1 hour post -injection (n = 3 per cohort), while studies with 86Y-labeled DOTA-TATE variants were conducted at 1, 4, and 24 hours post -injection (n = 3 per cohort). Mice were euthanized by CO2 asphyxiation, and 10 tissues, including tumors, were collected. All samples were weighed and counted on a gamma counter (2480 Wizard 3, Perkin Elmer Inc., Waltham, MA, USA). Results are presented as percentage of injected activity per gram (%IA/g) and mean values ± standard deviations. […]

[1] = blood, i.v. 1 μg (1.4–1.8 MBq), ex vivo gamma counting, mean, n = 3, read-out: Blood uptake
[2] = femur, i.v. 1 μg, ex vivo, mean, n = 3, read-out: Femur uptake
[3] = heart, i.v. 1 μg, ex vivo, mean, n = 3, read-out: Heart uptake
[4] = kidney, i.v. 1 μg, ex vivo, mean (± SD), n = 3, read-out: Kidney uptake
[5] = liver, i.v. 1 μg, ex vivo, mean, n = 3, read-out: Liver uptake
[6] = lung, i.v. 1 μg, ex vivo, mean, n = 3, read-out: Lung uptake
[7] = muscle, i.v. 1 μg, ex vivo, mean, n = 3, read-out: Muscle uptake
[8] = spleen, i.v. 1 μg, ex vivo, mean, n = 3, read-out: Spleen uptake
[9] = tumor (AR42J xenograft), i.v. 1 μg, ex vivo, mean (± SD), n = 3, read-out: Tumor uptake

In the case of `C[C@@H](O)[C@H](NC(=O)[C@@H]1CSSC[C@H](NC(=O)[C@@H](Cc2ccccc2)NC(=O)CN2CCN(CC(=O)O)CCN(CC(=O)O)CCN(CC(=O)O)CC2)C(=O)N[C@@H](Cc2ccc(O)cc2)C(=O)N[C@H](Cc2c[nH]c3ccccc23)C(=O)N[C@@H](CCCCN)C(=O)N[C@@H]([C@@H](C)O)C(=O)N1)C(=O)O` [^111In-DOTA-TATE, metal not drawn, reference compound], the tissue uptake at 1 h [1] is reported as 0.27 %ID/g, the tissue uptake at 1 h [2] is reported as 0.12 %ID/g and the tissue uptake at 1 h [3] is reported as 0.1 %ID/g. For the same compound, the tissue uptake at 1 h [4] was 7.33 ± 0.04 %ID/g, the tissue uptake at 1 h [5] was 0.23 %ID/g and the tissue uptake at 1 h [6] was 0.49 %ID/g. For the same compound, the tissue uptake at 1 h [7] was 0.06 %ID/g, the tissue uptake at 1 h [8] was 0.1 %ID/g and the tissue uptake at 1 h [9] was 5.67 ± 0.92 %ID/g.

`CSCC[C@H](NC(=O)CN1CCN(CC(=O)O)CCN(CC(=O)O)CCN(CC(=O)O)CC1)C(=O)N[C@H](C(=O)N[C@@H](CCCCNC(=O)CCCC(=O)N[C@H](Cc1ccccc1)C(=O)N[C@H]1CSSC[C@@H](C(=O)N[C@H](C(=O)O)[C@@H](C)O)NC(=O)[C@H]([C@@H](C)O)NC(=O)[C@H](CCCCN)NC(=O)[C@@H](Cc2c[nH]c3ccccc23)NC(=O)[C@H](Cc2ccc(O)cc2)NC1=O)C(=O)O)C(C)C` [^111In-DOTA-MVK(ε)-TATE, metal not drawn] showed a tissue uptake at 1 h [1] of 0.73 %ID/g, a tissue uptake at 1 h [2] of 0.55 %ID/g and a tissue uptake at 1 h [3] of 0.29 %ID/g. It also gave a tissue uptake at 1 h (intestine, i.v. 1 μg, ex vivo, mean, n = 3, read-out: Intestine uptake) of 0.81 %ID/g, a tissue uptake at 1 h [4] of 5.56 ± 0.29 %ID/g and a tissue uptake at 1 h [5] of 0.31 %ID/g. It also gave a tissue uptake at 1 h [6] of 0.73 %ID/g, a tissue uptake at 1 h [7] of 0.27 %ID/g and a tissue uptake at 1 h [8] of 0.16 %ID/g. The tissue uptake at 1 h [9] was 5.44 ± 0.19 %ID/g and the tissue to tissue ratio at 1 h (tumor and kidney, ex vivo) was 0.98.

Work on `C[C@@H](O)[C@H](NC(=O)[C@@H]1CSSC[C@H](NC(=O)[C@@H](Cc2ccccc2)NC(=O)CCCC(=O)Nc2cc(COC(=O)N(C)CCNC(=O)CN3CCN(CC(=O)O)CCN(CC(=O)O)CCN(CC(=O)O)CC3)ccc2O[C@@H]2O[C@H](CO)[C@H](O)[C@H](O)[C@H]2O)C(=O)N[C@@H](Cc2ccc(O)cc2)C(=O)N[C@H](Cc2c[nH]c3ccccc23)C(=O)N[C@@H](CCCCN)C(=O)N[C@@H]([C@@H](C)O)C(=O)N1)C(=O)O` [^111In-DOTA-β-Gal-TATE, metal not drawn] yielded a tissue uptake at 1 h (in vivo, i.v. 1 μg (1.4–1.8 MBq), ex vivo gamma counting, mean, n = 3, read-out: Blood uptake) of 0.56 %ID/g, a tissue uptake at 1 h (in vivo, i.v. 1 μg, ex vivo, mean (± SD), n = 3, read-out: Kidney uptake) of 5.19 ± 0.18 %ID/g and a tissue uptake at 1 h (in vivo, i.v. 1 μg, ex vivo, mean (± SD), n = 3, read-out: Tumor uptake) of 10.8 ± 1.11 %ID/g. It also gave a tissue uptake at 1 h (in vivo, i.v. 1 μg, ex vivo, mean, n = 3, read-out: Femur uptake) of 0.34 %ID/g, a tissue uptake at 1 h (in vivo, i.v. 1 μg, ex vivo, mean, n = 3, read-out: Heart uptake) of 0.29 %ID/g and a tissue uptake at 1 h (in vivo, i.v. 1 μg, ex vivo, mean, n = 3, read-out: Intestine uptake) of 0.79 %ID/g. It also gave a tissue uptake at 1 h (in vivo, i.v. 1 μg, ex vivo, mean, n = 3, read-out: Liver uptake) of 0.45 %ID/g, a tissue uptake at 1 h (in vivo, i.v. 1 μg, ex vivo, mean, n = 3, read-out: Lung uptake) of 0.92 %ID/g and a tissue uptake at 1 h (in vivo, i.v. 1 μg, ex vivo, mean, n = 3, read-out: Muscle uptake) of 0.17 %ID/g. For the same compound, the tissue uptake at 1 h (in vivo, i.v. 1 μg, ex vivo, mean, n = 3, read-out: Spleen uptake) was 0.21 %ID/g and the tissue to tissue ratio at 1 h (ex vivo) was 2.08.
